Data published in publication PMC3814354, “Interaction of bacterial fatty-acid-displaced regulators with DNA is interrupted by tyrosine phosphorylation in the helix-turn-helix domain”.

Key:
Details in all cases: protein: recombinant; tags: N-terminal 6xHis (pQE-30); chain copies: 2; label: none (ethidium bromide stain); blunt
[1] = molecular target: T1, FatR wild type (Bacillus subtilis, UniProt O08335 1-194); assay: EMSA; 120-1920 pmol protein, 30 pmol DNA (protein:DNA 4:1 to 64:1); EMSA: 100 mM Tris-HCl pH 7.5, 15 min at 37 C, 8% native PAGE in Tris-glycine (2.5 mM Tris, 192 mM glycine), ethidium bromide stain
T1 sequence: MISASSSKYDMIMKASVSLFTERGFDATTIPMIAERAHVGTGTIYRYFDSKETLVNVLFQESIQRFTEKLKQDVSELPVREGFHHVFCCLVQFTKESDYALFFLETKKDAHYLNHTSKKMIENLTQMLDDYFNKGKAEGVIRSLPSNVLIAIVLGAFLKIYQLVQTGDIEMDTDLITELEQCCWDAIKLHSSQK

[2] = molecular target: T2, FatR Y45F (Bacillus subtilis, UniProt O08335 1-194, Y45F); assay: EMSA; 960 and 1920 pmol protein, 30 pmol DNA (up to 64:1); EMSA: 100 mM Tris-HCl pH 7.5, 15 min at 37 C, 8% native PAGE in Tris-glycine (2.5 mM Tris, 192 mM glycine), ethidium bromide stain
T2 sequence: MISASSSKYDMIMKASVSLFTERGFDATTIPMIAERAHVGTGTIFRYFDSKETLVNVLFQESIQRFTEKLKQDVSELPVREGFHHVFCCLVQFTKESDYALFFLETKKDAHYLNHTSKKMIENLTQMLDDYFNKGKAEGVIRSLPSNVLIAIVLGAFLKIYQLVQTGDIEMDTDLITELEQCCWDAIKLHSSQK

[3] = molecular target: T3, FatR Y45E (Bacillus subtilis, UniProt O08335 1-194, Y45E); assay: as above
T3 sequence: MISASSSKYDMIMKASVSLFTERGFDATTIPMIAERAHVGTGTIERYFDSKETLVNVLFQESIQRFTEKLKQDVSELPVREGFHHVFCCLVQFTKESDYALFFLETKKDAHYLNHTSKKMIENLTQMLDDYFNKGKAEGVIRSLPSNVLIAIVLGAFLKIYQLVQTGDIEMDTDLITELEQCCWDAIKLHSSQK

B1: fatR operator (BsOP1/BsOP2) (dsDNA)
DNA 1: TACGGAATGAATATTCATTCCTTT
DNA 2: AAAGGAATGAATATTCATTCCGTA
[1]
  binding result: binds
[2]
  binding result: no binding
[3]
  binding result: no binding
